Laboratory results taken from PMC12754628.

Target: T1, CcpA (Staphylococcus aureus USA300) (UniProt P99175)
T1 sequence: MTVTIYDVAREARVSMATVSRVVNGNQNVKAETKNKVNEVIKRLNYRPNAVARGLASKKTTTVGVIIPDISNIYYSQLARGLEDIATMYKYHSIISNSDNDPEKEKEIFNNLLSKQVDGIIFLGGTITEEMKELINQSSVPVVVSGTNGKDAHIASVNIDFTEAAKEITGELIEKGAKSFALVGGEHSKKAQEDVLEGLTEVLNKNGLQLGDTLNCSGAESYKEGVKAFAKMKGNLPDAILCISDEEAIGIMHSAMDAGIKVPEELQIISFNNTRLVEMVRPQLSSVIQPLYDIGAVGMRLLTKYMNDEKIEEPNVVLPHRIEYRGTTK
Assay: competition
Conditions: 10 mM Tris-HCl pH 8.0, 5 mM MgCl2, 1 mM DTT, 50 mM KCl, 0.05% Nonidet P-40, 2.5% glycerol, 25 C, 30 min; 6% native PAGE in 0.5x TBE

In the case of “ATGCTTTACCAGCTTTGAATGCTGGAACTTTACTTGCTGGGATATCAATTTCTTTACCAGTTTGAGGGTTACGACCTTTACGTGCAGCACGTTCACGTACCTCAAAGTTACCGAAACCAATTAATTGTACTTTTTCACCTTTAGCAAGTGAGTTTTGGATTGATTCGAATACAGCATCTACTGCTGAACCAGCTTCTTTTT (double strand) [hu]”, the binding is reported as “no binding”.
